This note sets out measurements from patent publication US20240156863A1 (MorphoSys, published 2024).

The assay addresses T1, Human CD19 (human, UniProt P15391 20-556).
T1 construct: Endogenous CD19 on the CD19+ cell lines Jeko (JeKo-1), Nalm-6 and Ly7; also called B-lymphocyte antigen CD19; B4
T1 sequence: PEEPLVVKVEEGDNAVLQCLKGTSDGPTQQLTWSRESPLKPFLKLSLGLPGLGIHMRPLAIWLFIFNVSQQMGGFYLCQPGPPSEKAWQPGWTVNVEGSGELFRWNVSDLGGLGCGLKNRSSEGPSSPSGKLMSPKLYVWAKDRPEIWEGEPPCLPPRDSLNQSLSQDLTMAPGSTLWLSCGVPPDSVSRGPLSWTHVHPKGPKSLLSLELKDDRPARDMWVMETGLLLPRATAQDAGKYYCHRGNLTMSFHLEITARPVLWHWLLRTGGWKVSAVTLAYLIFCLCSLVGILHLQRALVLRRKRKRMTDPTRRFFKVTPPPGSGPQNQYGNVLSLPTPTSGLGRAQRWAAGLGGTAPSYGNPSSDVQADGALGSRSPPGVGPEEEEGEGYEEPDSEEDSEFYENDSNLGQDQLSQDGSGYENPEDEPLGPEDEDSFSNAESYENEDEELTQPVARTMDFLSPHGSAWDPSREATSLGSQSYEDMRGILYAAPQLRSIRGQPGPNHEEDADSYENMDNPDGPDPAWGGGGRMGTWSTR
Description: Pre-incubation of CD19+ Nalm-6 or Jeko cells, then flow cytometry with FMC63 as competitor. Here is the method: FIG. 2: Clone FMC63 (CD19 binding domain in CART19) and tafasitamab compete for CD19 binding. After 4 hours of treatment of Jeko cells with 2 or 0.5 mg/mL of tafasitamab, flow cytometry using the FMC63 anti-CD19 antibody was performed.
It was studied, whether the observed CART19 activity may be influenced by tafasitamab in case of a direct CD19 binding competition between tafasitamab and the CAR. To first test for such binding competition, the CD19+ cell lines Nalm-6 or Jeko were incubated with 2 or 0.5 mg/mL tafasitamab, to saturate the receptors. […] To investigate for any potential impact of such binding competition on CART19 cell effector functions, tafasitamab was incubated with target cells (CD19+ cell lines Jeko, Ly7 or Nalm-6) at increasing concentrations and then CART19 cells were added at different effector: target ratios (0.1:1 to 10:1), without other effector cells to the cell culture.
A general note: In flow cytometry, cells or beads pass a laser one at a time.

B1: tafasitamab (antibody, human IgG1, kappa, V domains shown)
VH: EVQLVESGGGLVKPGGSLKLSCAASGYTFTSYVMHWVRQAPGKGLEWIGYINPYNDGTKYNEKFQGRVTISSDKSISTAYMELSSLRSEDTAMYYCARGTYYYGTRVFDYWGQGTLVTVSS
VL: DIVMTQSPATLSLSPGERATLSCRSSKSLQNVNGNTYLYWFQQKPGQSPQLLIYRMSNLNSGVPDRFSGSGSGTEFTLTISSLEPEDFAVYYCMQHLEYPITFGAGTKLEIKR
notes: Fc-enhanced, humanized monoclonal anti-CD19 antibody; also called MOR00208; MOR208
For the molecule B1, the binding result is “binds”.
